The series is described as follows: amyloid nucleation score (Sup35N fusion, yeast selection) (log enrichment); library NNK2; higher = more nucleation; inactive = no reads after selection. The procedure, abridged:
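Three technical output replicates were used for random libraries. Psi-negative yeast expressing peptides of 20 random codons fused to Sup35N were induced with 100 μM copper sulfate for 24 hours and grown 7 days at 30°C on medium lacking adenine and uracil, and input and output plasmid inserts were Illumina-sequenced, excluding sequences with under 100 input reads. The nucleation score is the DiMSum log enrichment of output over input reads, centred on the mode score of non-aggregating sequences.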

± gives the uncertainty stated by the source.

On to SMRYDRDNHKHPFNIEAMRY, for which the amyloid nucleation score was -0.096 ± 0.46.

In turn, CFTGFRVIMVNICEWCVVVS gave an amyloid nucleation score of 3.9 ± 0.098.

In turn, KELLMAIASWSRLSGDIAVD had an amyloid nucleation score of -0.86 ± 0.78.

ARNIGDCRDVSCDWCFSYAF had an amyloid nucleation score of 5.13 ± 0.064.

Substance NTVFLLSFGCCEYYRFWGYL displayed an amyloid nucleation score of 8.34 ± 0.057.

VCWYG came in with an amyloid nucleation score of 0.034 ± 0.3.

YIWYFKMEVDYVLMMYAVAG returned an amyloid nucleation score of 0.183 ± 1.

The substance MSLWRVCCFSWPKKVYSNFR showed an amyloid nucleation score of 1.2 ± 0.1.

In turn, AFQITSERLGWKKVNHAVRW came in with an amyloid nucleation score of 0.432 ± 0.8.

DFYVSVPLRNCFSMSFIKWV came in with an amyloid nucleation score of -0.766 ± 0.48.

The substance GRASMRACWVKMFYWFW returned an amyloid nucleation score of 0.981 ± 0.18.

As to IIVSDSPTLQRS, the amyloid nucleation score was determined as 0.163 ± 0.63.

Turning to RMRCLDSVQGLNLIHTDVSV, the amyloid nucleation score result was “inactive”.

Regarding VQGPHSFNGVGCRPFSNERR, the amyloid nucleation score was -0.202 ± 1.1.

Turning to ADPSDVFMVVVLGSCRAFTV, the amyloid nucleation score turned out to be 1.63 ± 0.47.

Regarding FLWYGISVI, the amyloid nucleation score is 0.02 ± 0.4.

Turning to YSGWVSDS, the amyloid nucleation score result is “inactive”.

In the case of SVNYVCISLVVM, the amyloid nucleation score was 7.14 ± 0.072.

The substance VIMVTSPQFKKPKLYMDKRD yielded an amyloid nucleation score of -1.03 ± 0.54.

Substance YHCRSEVTCWLEYDG registered an amyloid nucleation score of 0.712 ± 0.28.

Substance FMIMNYNQLCINRCLNGGRV displayed an amyloid nucleation score of 9.059 ± 0.044.

On to NTYLSMEFLLTP, for which the amyloid nucleation score result is “inactive”.

As for VSNYMIVKIQWFHIVVGPGL, the amyloid nucleation score was found to be 5.598 ± 0.031.

RFSELSHK registered an amyloid nucleation score of -0.144 ± 0.26.

In turn, TLGTLRQ yielded an amyloid nucleation score of 1.59 ± 0.23.

For MDFSSLWGLHFVLCCVSWGR, the amyloid nucleation score stood at 0.256 ± 1.

Substance FLSYLN gave an amyloid nucleation score of -0.322 ± 0.5.

In turn, RSPCIWLWFLNAACHKCVLM returned an amyloid nucleation score of 0.752 ± 0.43.

FCIPYGGLIDTA returned an amyloid nucleation score of -1.52 ± 0.41.

Consider LYNEMVRSLVGAICRSRQGY, for which the amyloid nucleation score is -0.297 ± 1.1.

RNSCFVLSFMGWFVHYHFRF: the amyloid nucleation score is -0.317 ± 0.79.

Take LSFFSLSIQSCMHGSLKIDS: the amyloid nucleation score is -0.294 ± 1.1.

AFCTKCASMRAILRGGGLVW registered an amyloid nucleation score of -0.109 ± 0.76.

Substance VPIKGHNRHMMNYNSEKAGS showed an amyloid nucleation score of -1.13 ± 0.76.

YTFCKHDVYAISLRFVLAPY: the amyloid nucleation score is 7.304 ± 0.035.

For the substance VYCFSAFLGQ, the amyloid nucleation score was 3.63 ± 0.082.

In turn, FNVAGRRRISGTNLY displayed an amyloid nucleation score of -0.159 ± 1.1.

On to RPIKRV, for which the amyloid nucleation score was 0.173 ± 0.2.

Substance LYPWRMTCYK came in with an amyloid nucleation score of -1.34 ± 0.76.

ICQWRSWLKSTVIFCTRYDF: the amyloid nucleation score amounted to 3.37 ± 0.13.

Turning to FNGLSSFSFMLIGTGFDISC, the amyloid nucleation score is -0.934 ± 0.64.

TIFLFLFSMVSVVICLMVLP displayed an amyloid nucleation score of -1.31 ± 0.55.

FANRILCVVSGINRVTGL registered an amyloid nucleation score of 0.192 ± 0.34.

In turn, IFLQNTSSEWLLSARDRLRY came in with an amyloid nucleation score of 0.157 ± 1.

The substance LWGFMCFFW had an amyloid nucleation score of -1.41 ± 0.29.

On to SMVFFGPFIFYVANPITSFV, for which the amyloid nucleation score came to 5.54 ± 0.068.

On to FGIFVNRLCFSIDSYAGNGK, for which the amyloid nucleation score was found to be 6.605 ± 0.037.

TYIFLSRIGQFSKLQYVMRL displayed an amyloid nucleation score of 5.37 ± 0.056.

As for SSKETGRRTVDRFQYMTRYR, the amyloid nucleation score is 1.94 ± 0.32.

Consider RVVGPFFMVFVLTDMGFWVT, for which the amyloid nucleation score entry was “inactive”.

For the substance WGTCMCRKWASHFDREC, the amyloid nucleation score stood at 2.55 ± 0.17.

Take ISPLIG: the amyloid nucleation score stood at 0.33 ± 0.49.

Substance ITQRFKTWRCGGGDEVRQAN displayed an amyloid nucleation score of 0.239 ± 0.49.

As for NLGGRFCAGFRRNHTCLGRN, the amyloid nucleation score is -0.458 ± 0.33.

With WYSQVPERALRQWGFFSLGG, the amyloid nucleation score is 0.397 ± 0.46.

For the substance FRSNYVKAFRYLYVGLVVNL, the amyloid nucleation score was -0.505 ± 1.1.

AMLDP displayed an amyloid nucleation score of -0.191 ± 0.41.

LSFPHVLYFETCPCMARVVA registered an amyloid nucleation score of -0.081 ± 1.1.

In turn, VSTTLTCEMLSVAVLFT had an amyloid nucleation score of 0.886 ± 0.3.

KRWQVLFDRSRKYCRVGKT had an amyloid nucleation score of 0.161 ± 0.56.

In turn, VQFRAHSCLLA returned an amyloid nucleation score of 0.841 ± 0.74.

Take NRNKAASYNGLYCFDPAIVD: the amyloid nucleation score is -1.09 ± 0.55.

For the substance RSRVLILCDEGRNCVL, the amyloid nucleation score is -0.533 ± 0.42.

VNFRVGCLVSYMNVK gave an amyloid nucleation score of 2.6 ± 0.13.

Consider LRMHFMMWTRRVNLVRHGNN, for which the amyloid nucleation score result was “inactive”.

With DFGRWSTSGSVPCSGATCAV, the amyloid nucleation score amounted to 2.43 ± 0.2.

Consider VSYVYVKGFGVWFLCTCSPR, for which the amyloid nucleation score amounted to 5.74 ± 0.072.

SSLNHNPGWTEIYELHLVGF: the amyloid nucleation score came to 0.27 ± 0.8.

The substance RGFCYNIT returned an amyloid nucleation score of 0.305 ± 0.37.

On to YAVWLDMGFILIIACVGKYN, for which the amyloid nucleation score is -0.747 ± 1.1.

On to KQLFSLISYVG, for which the amyloid nucleation score is -1.4 ± 1.1.

As to LVKCSVSVRGEILRFLRYMA, the amyloid nucleation score was found to be 0.26 ± 0.22.

The substance HYSGGCSLPSVKERVGTSIG registered an amyloid nucleation score of -0.604 ± 0.76.

MFIGLLVLRLLFAYQNDKSY yielded an amyloid nucleation score of 0.153 ± 0.79.

In the case of TRNAFNCTENISTLPTARYL, the amyloid nucleation score was -0.399 ± 0.46.

As for AKFTL, the amyloid nucleation score was -0.253 ± 0.3.

RDCICSVYPFAVLMGSQPLA had an amyloid nucleation score of 9.086 ± 0.063.

For HIFHCLSMGILGCSMFLCLD, the amyloid nucleation score turned out to be 0.952 ± 0.24.

HSTVSLQSGRMNVVASGVIH displayed an amyloid nucleation score of 1.62 ± 0.11.

NRRYLKPSGPEEGWMMLSGT returned an amyloid nucleation score of 1.03 ± 0.35.

On to WIITNCSLFFSVALS, for which the amyloid nucleation score came to 6.79 ± 0.085.

As to NRTAFPCFLA, the amyloid nucleation score was -0.473 ± 0.49.

Consider GCYLVNDASPVSHLVFLPM, for which the amyloid nucleation score entry is “inactive”.

The substance VVAFRMSSDNAHSHDLPVPW came in with an amyloid nucleation score of 5.59 ± 0.073.

The substance WFGYMALPR returned an amyloid nucleation score of 4.63 ± 0.064.

AHYRR: the amyloid nucleation score was -0.226 ± 0.45.

For the substance VWLCHSVNHIAISNE, the amyloid nucleation score is 1.12 ± 0.45.

As for HTGLFWS, the amyloid nucleation score result was “inactive”.

VSPALK had an amyloid nucleation score of -0.055 ± 1.1.

As for SMLRY, the amyloid nucleation score came out at 0.171 ± 0.6.

With FSVRLSELSMTNLSTQYEIS, the amyloid nucleation score is 1.82 ± 0.15.

With VEMAFRFQRSKSCLSLDDFV, the amyloid nucleation score entry was “inactive”.

IITLSYGGCSVGPCGQ: the amyloid nucleation score was 7.371 ± 0.057.

Take RTLLSSCKIATSLWHMCYPQ: the amyloid nucleation score was -0.381 ± 1.1.

Regarding LGKFFNNPLLFGFY, the amyloid nucleation score result is “inactive”.

HYMRFYCCSYNANKTVSYVP showed an amyloid nucleation score of 8.72 ± 0.028.

The substance IAVERS came in with an amyloid nucleation score of -0.464 ± 1.1.

For KFGSWDHSACYSRWYSKSFV, the amyloid nucleation score was -0.012 ± 1.1.

MQRTIYFS yielded an amyloid nucleation score of 0.767 ± 0.58.

As to GLNVHVVRLGIQLFFKWNDI, the amyloid nucleation score was found to be 1.74 ± 0.18.

In the case of LLIFGVVLRVMNVVDPIRDI, the amyloid nucleation score was -1.13 ± 0.55.

RSWIGERIIYSSMRYQCAYL registered an amyloid nucleation score of -1.42 ± 0.54.

In turn, FMYLPL registered an amyloid nucleation score of -0.596 ± 0.3.

In turn, LALMS gave an amyloid nucleation score of -0.324 ± 0.61.

For GLLKTQ, the amyloid nucleation score is -0.087 ± 0.31.

KLIHWIILVWFSSGTLPCND showed an amyloid nucleation score of -0.133 ± 0.5.

As to AAACAGIKFLLTFTFGFRTW, the amyloid nucleation score result is “inactive”.

As for QCLYWV, the amyloid nucleation score entry was “inactive”.

In the case of CKEDIISSEWYLSVGFA, the amyloid nucleation score result was “inactive”.

Turning to AHHYSESRGFRCCLTSGYFC, the amyloid nucleation score was 0.818 ± 0.25.

Turning to HMSVGNFLIPLCITMLRGIG, the amyloid nucleation score was -0.347 ± 1.1.

On to WWSKEREYWSLPVGWFMEAV, for which the amyloid nucleation score stood at 0.085 ± 0.45.

Substance EVRIDHGHVIA had an amyloid nucleation score of 0.293 ± 0.43.

LGFAGSVGICDRKTLDRREC returned an amyloid nucleation score of 4.91 ± 0.064.

The substance GGYSLWF displayed an amyloid nucleation score of 0.292 ± 0.23.

In the case of GLLVLLLETCWKLVSFDLRK, the amyloid nucleation score is 0.561 ± 0.39.

The substance ASVKSILVYGGCTKWFFPHF yielded an amyloid nucleation score of 4.11 ± 0.062.

Regarding IARDYVQ, the amyloid nucleation score was -0.918 ± 0.54.

ASGDGLNFWPFRSPTDAQRA returned an amyloid nucleation score of 0.775 ± 0.5.

As to GCSLVKAYCSVL, the amyloid nucleation score was found to be 0.325 ± 0.6.

In the case of SIWYLGGC, the amyloid nucleation score is -0.02 ± 0.42.

Substance QCGMIMRSSLKSGATCFLDS displayed an amyloid nucleation score of 0.124 ± 0.61.

LGSLDPKRHLYI yielded an amyloid nucleation score of -0.784 ± 1.1.

With KMHLAQ, the amyloid nucleation score entry is “inactive”.

With KMTYP, the amyloid nucleation score stood at 2.14 ± 0.13.

NFRPCRVLRFGY returned an amyloid nucleation score of 1.03 ± 0.66.

SMSLRTCSLSFVSWMKFKDG had an amyloid nucleation score of 0.095 ± 0.45.

On to ELSHSLSIKATVEGS, for which the amyloid nucleation score came out at 0.279 ± 0.56.

VFNWVRISPR showed an amyloid nucleation score of 8.81 ± 0.07.

Take AFPNNFTRLYALEVLFGFRN: the amyloid nucleation score is 2.1 ± 0.21.

GGMLPYVVITFETFMPRCMN registered an amyloid nucleation score of -1.7 ± 0.75.

On to LGYTSFYSFILKEGMFTAMG, for which the amyloid nucleation score worked out at 0.434 ± 0.27.

Turning to WLKYMSCSLAKSQVSACVSV, the amyloid nucleation score was found to be 0.219 ± 0.46.

Regarding HMQPYIRESISVG, the amyloid nucleation score result was “inactive”.

As for DIIAPEKNFIIYY, the amyloid nucleation score entry is “inactive”.

EFMYKQCRYIVTPYGLVVSR: the amyloid nucleation score is -0.557 ± 1.1.

Take MIMEQSNNISNCLFVMQGPK: the amyloid nucleation score is 7.143 ± 0.07.

PIKYIVFSVLSCRRCLGNSM showed an amyloid nucleation score of 0.651 ± 0.48.

In turn, CSYVAGETSLERSHCILGWS registered an amyloid nucleation score of 0.161 ± 0.34.

Substance YSRGWVHVI had an amyloid nucleation score of 0.384 ± 0.56.

Consider IYYLRLWSM, for which the amyloid nucleation score entry was “inactive”.
